# From US9657059B2, “Immune system modulators” (Canimguide Therapeutics AB, priority 2013, dated 2017)
# How the values were obtained:
# [1] = biological target: P3028 (Homo sapiens, UniProt P02768); test: PEPSCAN rampo assay: binding of P3028 to support-bound peptides, sandwich ELISA; details: binding of P3028 to peptide on solid phase
# From the text: Based on the ability of P28R to bind the P3028 sequence/structure, unblock the LFA-1 receptor, and ameliorate the P3028 sequence/structure-dependent immunosuppression, P28R was used as a template compound to identify additional compounds that bind to and sequester P3028. Variants of the P28R structure were synthesized, and tested for the ability to bind P3028 using PEPSCAN technology (see Example 12). A library of peptides that include each genetically-coded amino acid substitution at each amino acid position of P28R (i.e., 19 substitutions for each position) was synthesized. Each peptide was affixed to a support pin, and the peptide library was incubated with P3028. The binding of the candidate inhibitors to P3028 was detected by a sandwich ELISA, where a rabbit anti-mouse peroxidase (rampo) secondary antibody was employed (see Example 12). The binding of each peptide was then assigned a rampo score (see FIG. 27). Peptide P28R had rampo values ranging between about 262 and 460 with a mean value of 370. In some embodiments, the immunoregulatory peptide inhibitor as disclosed herein, is selected for a desired P3028 binding rampo score. In some embodiments, the desired P3028 binding rampo score is greater than or equal to the rampo score of P28R. It is also contemplated that some peptides that bind to P3028 with less affinity than P28R have therapeutic application. Some peptides with binding affinities that are less than P28R, for example, may modulate signal transduction events differently than P28R by virtue of the fact that the affinity to P3028 is less. […] Accordingly, contemplated embodiments include peptides that bind with any affinity to P3028 (e.g., any one or more of the peptides provided in Table 5.1, preferably peptides that modulate the immune system (e.g., modulate, upregulate or down regulate a marker of the immune system or immunosuppression, such as reducing a P3028-mediated inhibition of immune cell proliferation, spreading, migration, or NK-cell cytotoxicity).
# It is contemplated that inhibitors of any one or more of the peptides listed in Tables 1-4 can comprise modifications of the P28R (SEQ ID NO: 2) or P28 core (SEQ ID NO: 62) sequence, and further can be useful for reducing inhibition of the LFA-1 receptor, or for stimulating immune cells. To identify modification to inhibitor peptides in accordance with some embodiments herein, positional scan data was used to study the influence of substitution of different types of amino acids in each position of P28R (SEQ ID NO: 2) on the binding of P3028 (SEQ ID NO: 185). Each amino acid in the peptide sequence of P28R (SEQ ID NO: 2) was exchanged with all of the naturally occurring amino acids, and binding of P3028 (SEQ ID NO: 185) to each peptide on a solid phase chip was assessed (see, e.g. Example 36). A number of optional modifications to P28R in accordance with embodiments herein are summarized in Tables 5.3, 5.4, 5.5, 5.6, and 13. Optionally, an inhibitor peptide in accordance with some embodiments herein can comprise one or more of the modifications of Table 5.3 or Table 13. Optionally, an inhibitor peptide comprises a central core of positions 2, 5-11, and 15 as provided in Table 5.3, and the remaining position are omitted or substituted with substantially any amino acid. Optionally, an inhibitor peptide comprises a central core of positions K2, T5-S11, and E15 of SEQ ID NO: 2, and the remaining position are omitted or substituted with substantially any amino acid.
# Embodiments of the invention also include immunoregulatory peptide inhibitors that have a specific affinity to P3028 sequences or structures. In some embodiments, the immunoregulatory peptide inhibitors have specific affinity to P3028 sequences or structures as measured by a rampo assay in which the immunoregulatory peptide inhibitors are affixed to a solid phase, P3028 is added, and the enzymatic activity of a rampo secondary antibody is measured so as to detect binding (see Example 12). […]
# [2] = biological target: P3028 (SEQ ID NO: 185) (Homo sapiens, UniProt P02768); test: PEPSCAN (rampo) ELISA: binding of His-tagged P3028 to P28R variants on chip; details: for rampo score / binding to P3028 compared with P28R: truncations, deletions, glycine substitutions (FIG. 29, 30)
# Description: Based on the structure of peptide P28R, additional peptides were identified that bind to P3028. The additional binders included deletions, truncations, and or amino acid substitutions of peptide P28R. Binding of peptides to P3028 was assayed using PEPSCAN technology. PEPSCAN technology, or “rampo” assays are biochemical binding assays, details of which are provided below:
# A peptide microarray screening technology was used to measure binding of P28R (SEQ ID NO: 2) and variants of P28R to P3028 (SEQ ID NO: 185). In this technology libraries of synthetic peptides are synthesized and covalently linked onto polypropylene microarray chips. The linear peptides were synthesized onto credit-card format polypropylene cards (455 peptide formats/card) as described by (Timmerman et al., 2004) using standard Fmoc-chemistry using hexamethylenediamine (HMDA) as linker and deprotection using trifluoroacetic acid (TFA) with scavengers.
# The binding of His-tagged P3028 to each peptide on the card was tested in an ELISA assay. The 455-well credit card format polypropylene cards containing the covalently linked peptides were incubated with His-tagged P3028 peptide (PGE73) solution consisting of 0.5 μg/mL diluted in blocking solution (4% horse serum, 5% ovalbumin (w/v) in PBS/1% TWEEN reagent). After washing, the peptides were incubated with a monoclonal mouse anti-His-tag antibody (Novagen, 70796-3, diluted 1/1000 in the incubation buffer) and subsequently after washing with a rabbit-anti-mouse antibody peroxidase (Rampo) conjugate (Southern Biotech, 6175-05, diluted 1/1000), for one hour at 25° C. After washing, the peroxidase substrate 2,2′-azine-di-3-ethylbenzthiazoline sulfonate (ABTS) and 2 μL of 3% H2O2 were added. The binding capacity of the mAb was measured as a color development at 405 nm (optical density, OD405). The color development was quantified with a charge-coupled device (CCD)—camera and an image processing system.
# The OD405-values obtained by a CCD-camera was considered as raw data values (“rampo values,” “rampo units,” or “rampo scores”). The values mostly ranged from 0 to 3000, a log scale similar to 1 to 3 of a standard 96-well plate ELISA-reader. First the CCD-camera made a picture of the card before peroxidase coloring and then again a picture after the peroxidase coloring. […] These values were copied into an excel file and labeled as a raw data file. One follow-up manipulation was allowed. Sometimes a well can contain an air-bubble resulting in a false-positive value. If manual inspection of the cards detect an air-bubble the value are set to 0 for that well.
# A library of peptides tested for binding to peptide P3028 included all substitutions for each position of the peptide P28R (SEQ ID NO: 2) (i.e., 19 substitutions for each position). The results of the binding experiments are shown in FIGS. 27, 28, 29 and 30 and Table 5.1. […] P28R had rampo values ranging between 262 and 460 with a mean value of 370. […] In addition, M and S in position 7 (SEQ ID NOs: 9 and 10, respectively), and Q and M in position 11 (SEQ ID NOs: 15 and 16, respectively) all have rampo values over 700.
# For each position of P28R, the rampo scores of the group of 19 different peptides containing an L-amino acid substitution were compared to the rampo score of a control sample P28R peptide (SEQ ID NO: 2) for that group. Single-amino acid substitutions having a rampo score greater than or substantially equivalent to P28R were identified. […]
# [3] = test system: PBMCs from a healthy control; test: PBMC activation (CD69, CD71) by flow cytometry in RPMI plus 10% human AB serum; type: cell-based; details: 40 μg/mL; 24 hours
# Description: FIG. 41 is a series of graphs illustrating effects of modified peptides on activation of PBMCs from healthy control person. PBMCs were incubated with the peptides (40 μg/mL) for 24 hours in RPMI plus 10% human AB serum. Activation is determined as percentage of cells with enhanced marker CD69 using flow cytometry. FIG. 41A illustrates results of two experiments (410 and 412) performed for each peptide. FIG. 41B illustrates results of two experiments (414 and 416) performed for each peptide.
# FIG. 42 is a series of graphs illustrating effects of the full length peptide P28R and the 6 amino acid central sequence (32230, FFVKLS, SEQ ID NO: 62) in culture medium containing normal human AB serum. Activation is determined as percentage of cells with enhanced marker CD69 or CD71 using flow cytometry. PBMCs were incubated with the peptides (40 μg/mL) for 24 hours in RPMI plus 10% human AB serum. FIG. 42A illustrates the results of two experiments (420 and 422) performed for each peptide. FIG. 42B illustrates the results of two experiments (424 and 426) performed for each peptide.
# FIG. 46 is a series of graphs illustrating Effect of modified peptides on activation of PBMCs from healthy control person. […] PBMCs were incubated with the peptides (40 μg/mL) for 48 hours in RPMI plus 10% human AB serum.
# Based on the positional scan data, it is contemplated that substitutions of SEQ ID NO: 2 can be useful in accordance with some embodiments herein for binding P3028, de-blocking the LFA-1 receptor from P3028-mediated inhibition (e.g. displacing bound P3028 peptide and P3028-structure containing molecules from the LFA-1 receptor), and/or stimulating immune cells. The activity of peptide P28R (SEQ ID NO: 2) and modifications of P28R was studied in a human ex vivo model using PBMCs from a healthy control human in short term cultures, and with PBMC activation measured as a percentage of cells with enhanced CD69 (see Example 37).
# As P28R (SEQ ID NO: 2) can bind to P3028 and stimulate PBMC's from healthy controls in short term cultures, for example when in a culture medium comprising RPMI plus 10% normal human AB serum (see Example 37), it is contemplated that truncations of P28R in accordance with some embodiments herein can be useful for binding to inhibitors of any one or more of the peptides listed in Tables 1-4. Truncations of P28R were assessed for their ability to activate PBMC's (see Example 38). PBMCs were incubated with the peptides (40 μg/mL) for 24 hours in RPMI plus 10% human AB serum. PBMC activation was measured as percent cells with enhanced expression of either CD69 (FIG. 42A) or CD71 (FIG. 42B) using flow cytometry. […] However, PBMCs were also incubated with the peptides in cancer sera from dogs, or in caner sera from human cancer patients (see FIG. 43). […] As such, it is contemplated that in accordance with some embodiments herein, P28R, P28 core, or combinations of these peptides are useful for stimulating immune cells in the serum of a subject that has cancer.
# Effects of modified peptides on the activation of PBMCs from a healthy control person were assessed (see Example 41). PBMCs were incubated with the peptides (40 μg/mL) for 48 hours in RPMI plus 10% human AB serum, and PBMC activation was determined by flow cytometry based on the percentage of cells with enhanced marker CD69 or CD71. Peptides P28R (SEQ ID NO: 2), P28 core (peptide 32230) (SEQ ID NO: 62), 32251 ([…]) (SEQ ID NO: 592), 32814 ([…]) (SEQ ID NO: 586), 32815 ([…]) (SEQ ID NO: 595), 32665 ([…]) (SEQ ID NO: 593), and 32819 ([…](C(PEG24))) (SEQ ID NO: 594) were tested. […] Accordingly, it is contemplated herein that
Substance,RAMPO Score [1],further results
391 (KKLDTFFVKLSLFTER) [compound 391],366,"RAMPO Score ([2]; binding of His-tagged P3028 0.5 μg/mL to chip-bound peptide, OD405 raw value): 260"
396 (KKLDTFFVKLSLFTER) [compound 396],460,–
398 (KKLDTFFVKLSLFTER) [compound 398],445,–
399 (KKLDTFFVKLSLFTER) [compound 399],442,–
400 (KKLDTFFVKLSLFTER) [compound 400],437,–
403 (KKLDTFFVKLSLFTER) [compound 403],428,–
406 (KKLDTFFVKLSLFTER) [compound 406],424,–
KKFFVKLSLFTER [SEQ ID NO: 76],–,"rampo score / binding to P3028 compared with P28R [2]: comparable to, or higher than peptide P28R"
KKLDTFFVDLSLFTER [compound 31138],–,"PBMC activation, cells with enhanced CD69 [3]: did not stimulate"
KKLDTFFVKLSFTER [SEQ ID NO: 68],–,"rampo score / binding to P3028 compared with P28R [2]: comparable to, or higher than peptide P28R"
KKLDTFFVKLSLFTFR [compound 30685],–,"PBMC activation, cells with enhanced CD69 [3]: did not stimulate"
KKLDTFFVNLSLFTER [compound 31136],–,"PBMC activation, cells with enhanced CD69 [3]: did not stimulate"
KKLDTFVKLSLFTER [SEQ ID NO: 65],–,"rampo score / binding to P3028 compared with P28R [2]: comparable to, or higher than peptide P28R"
KKLTFFVKLSLFTER [SEQ ID NO: 64],–,"rampo score / binding to P3028 compared with P28R [2]: comparable to, or higher than peptide P28R"
KSLDTFFVKLSLFTER [compound 30864],–,"PBMC activation, cells with enhanced CD69 [3]: did not stimulate"

# More lines, main results first:
RAMPO Score [1],Substance,further results
414,408 (KKLDTFFVKLSLFTER) [compound 408],–
402,414 (KKLDTFFVKLSLFTER) [compound 414],–
377,427 (KKLDTFFVKLSLFTER) [compound 427],–
375,428 (KKLDTFFVKLSLFTER) [compound 428],–
371,430 (KKLDTFFVKLSLFTER) [compound 430],–
348,442 (KKLDTFFVKLSLFTER) [compound 442],–
319,476 (KKLDTFFVKLSLFTER) [compound 476],–
308,487 (KKLDTFFVKLSLFTER) [compound 487],–
260,516 (KKLDTFFVKLSLFTER) [compound 516],–
